Values quoted from earlier work, collected in article PMC5755571.

Target: His64 (UniProt position 64, ILNNGHAFNVE)

Carbonic anhydrase II (hCAII) (Homo sapiens)
pKa: around 7
